This is an account of results in publication PMC9509318 (2022).

In assay [1] the target is T1, Pfs48/45 full-length ectodomain (Plasmodium falciparum, UniProt Q8I6T1 27-427).
T1 chain: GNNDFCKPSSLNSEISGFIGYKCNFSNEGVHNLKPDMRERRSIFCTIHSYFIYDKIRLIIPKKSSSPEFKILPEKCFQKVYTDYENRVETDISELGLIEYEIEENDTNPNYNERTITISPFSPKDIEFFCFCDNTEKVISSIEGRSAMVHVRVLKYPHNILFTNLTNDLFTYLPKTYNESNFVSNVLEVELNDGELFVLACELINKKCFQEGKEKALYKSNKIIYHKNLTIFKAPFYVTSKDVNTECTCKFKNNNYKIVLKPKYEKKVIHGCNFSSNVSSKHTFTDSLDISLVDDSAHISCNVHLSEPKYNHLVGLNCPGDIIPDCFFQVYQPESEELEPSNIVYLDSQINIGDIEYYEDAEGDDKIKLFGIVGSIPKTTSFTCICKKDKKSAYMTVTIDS
The experiment in a line: SPR.

Assay [2] concerns the target T1, Pfs48/45 full-length ectodomain. The experiment in a line: SPR. (In general: In SPR one partner is held on a chip, and binding of the other changes the refractive index at the surface.)

B1: 32F3 monoclonal antibody (antibody, V domains shown)
VH: DVKLVESGGGLVKLGGSLKLSCAASGFTFSSYYMSWVRQTPEKRLELVAAINNNGGSTYYPDTVKGRFTISRDNAKNTLNLQMNSLKSEDTALYYCTRQHYGNLYFFDYWGQGTTLTVSS
VL: QIVLSQSPAILSASPGEKVTMTCRASSSVTYIHWYQQKPGSSPKPWIQATSSLASGVPARFSGSGSGTSYSLSISRVEAEDAATYYCQQWSSNPLTFGAGTKLELK
As for B1, in assay [1], the Kd – broadly, the equilibrium constant for the complex coming apart – amounted to 4.1 nM. The koff (as a rule, the first-order rate constant of dissociation) in assay [2] was 0.000121 s⁻¹.

B2: 10D8 monoclonal antibody (antibody, V domains shown)
VH: EVMLVESGGDLVKPGGSLKVSCAASGFTFSNYAMSWVRQTPEKRLEWVATISSGASYTHYPDSVKGRFTISRDNAKNTLYLQMSSLRSEDTAMYYCGRQVNRHDRALDAMDYWGQGTSVTVSP
VL: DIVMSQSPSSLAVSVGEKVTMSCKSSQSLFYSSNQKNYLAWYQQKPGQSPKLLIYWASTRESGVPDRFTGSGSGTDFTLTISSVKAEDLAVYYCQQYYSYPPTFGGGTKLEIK
Regarding B2, the Kd in assay [1] was 35.8 nM. Moreover, the koff in assay [2] worked out at 0.0027 s⁻¹.

B3: 85RF45.1 monoclonal antibody (antibody, V domains shown)
VH: EVQLVESGGGLLQPGRSLKLSCVASGFTFNNYWMSWIRQAPGKGLEWIASISNIGGTIYYPDSVKGRFTISRDSAQNTLYLQMNSLRSEDTATYYCTRDLRMSDYFDYWGQGVMVTVSS
VL: QFVLSQPNSVSTNLGSTVKLSCKRSTGNIGSNYVSWYQHHEGRSPTTMIYRDDQRPDGVPDRFSGSIDRSSNSALLTIDNVQTEDEAAYFCHSYSTGMYIFGGGTKLTVL
In the case of B3, binding in assay [1] was put at a Kd of 1.34 nM.
